The text below walks through data of patent US8663616B2, “Enzymatic peracid generation for use in oral care products” (E I du Pont de Nemours and Company, priority 2010, dated 2014).

Assay [1] is described as follows: Peracetic acid from C277S CXH fusions exposed to hydroxyapatite discs (Example 9). The settings on record: no enzyme control subtracted; for Peracetic acid (ppm) Exposed to Hydroxyapatite, Disc: disc-bound enzyme, 100 mM triacetin, 100 mM H2O2, 30 min, 37° C.; for Peracetic acid (ppm) Exposed to Hydroxyapatite, Supernatant: unbound enzyme in supernatant after 10 μM enzyme on disc.

Assay [2] in a line: Peracetic acid generated in solution by C277S CXH fusions (Example 9). The settings on record: 0.5 μM enzyme, sarkosyl buffer, 100 mM triacetin, 100 mM H2O2, pH 7.2, 10 min, 37° C.

B1: EZ-24: C277S-…-Link1-CXH104-H6, SEQ ID NO: 448 (protein)
chain: MAFFDLPLEELKKYRPERYEEKDFDEFWEETLAESEKFPLDPVFERMESHLKTVEAYDVTFSGYRGQRIKGWLLVPKLEEEKLPCVVQYIGYNGGRGFPHDWLFWPSMGYICFVMDTRGQGSGWLKGDTPDYPEGPVDPQYPGFMTRGILDPRTYYYRRVFTDAVRAVEAAASFPQVDQERIVIAGGSQGGGIALAVSALSKKAKALLCDVPFLCHFRRAVQLVDTHPYAEITNFLKTHRDKEEIVFRTLSYFDGVNFAARAKIPALFSVGLMDNISPPSTVFAAYNYYAGPKEIRIYPYNNHEGGGSFQAVEQVKFLKKLFEKGEPEPEPEGPGSGGAGSPGSAGGPGSRMLSRILRMFVRILKRERLSQVRGLFVHHHHHH
For the molecule B1, in assay [1], the “Peracetic acid (ppm) Exposed to Hydroxyapatite, Disc” value (“Peracetic acid (ppm) Exposed … Disc” for short) is reported as 3453 ppm and the “Peracetic acid (ppm) Exposed to Hydroxyapatite, Supernatant” value (from here on “Peracetic acid … Supernatant”) is on record as 719 ppm. In assay [2], the “Peracetic acid (ppm) In Solution” value turned out to be 2951 ppm.

B2: EZ-23: C277S-EPEPE-Link1-EPEPE-CXH104-H6, SEQ ID NO: 447 (protein)
chain: MAFFDLPLEELKKYRPERYEEKDFDEFWEETLAESEKFPLDPVFERMESHLKTVEAYDVTFSGYRGQRIKGWLLVPKLEEEKLPCVVQYIGYNGGRGFPHDWLFWPSMGYICFVMDTRGQGSGWLKGDTPDYPEGPVDPQYPGFMTRGILDPRTYYYRRVFTDAVRAVEAAASFPQVDQERIVIAGGSQGGGIALAVSALSKKAKALLCDVPFLCHFRRAVQLVDTHPYAEITNFLKTHRDKEEIVFRTLSYFDGVNFAARAKIPALFSVGLMDNISPPSTVFAAYNYYAGPKEIRIYPYNNHEGGGSFQAVEQVKFLKKLFEKGEPEGPGSGGAGSPGSAGGPGSEPERMLSRILRMFVRILKRERLSQVRGLFVHHHHHH
On to B2, for which, in assay [1], the “Peracetic acid (ppm) Exposed … Disc” value is recorded as 4463 ppm and the “Peracetic acid … Supernatant” value is on record as 1712 ppm. Besides, the “Peracetic acid (ppm) In Solution” value in assay [2] was 2212 ppm.

B3: EZ-25: C277S-EPEPE-Link1-EPEPE-CXHG102-H6, SEQ ID NO: 449 (protein)
chain: MAFFDLPLEELKKYRPERYEEKDFDEFWEETLAESEKFPLDPVFERMESHLKTVEAYDVTFSGYRGQRIKGWLLVPKLEEEKLPCVVQYIGYNGGRGFPHDWLFWPSMGYICFVMDTRGQGSGWLKGDTPDYPEGPVDPQYPGFMTRGILDPRTYYYRRVFTDAVRAVEAAASFPQVDQERIVIAGGSQGGGIALAVSALSKKAKALLCDVPFLCHFRRAVQLVDTHPYAEITNFLKTHRDKEEIVFRTLSYFDGVNFAARAKIPALFSVGLMDNISPPSTVFAAYNYYAGPKEIRIYPYNNHEGGGSFQAVEQVKFLKKLFEKGEPEPEPEGPGSGGAGSPGSAGGPGSEPEPEPELRFLARRFLKLRRARKWWNAWKVWVTRHHHHHH
B3: in assay [1], the “Peracetic acid (ppm) Exposed … Disc” value came out at 1791 ppm and the “Peracetic acid … Supernatant” value was found to be 1029 ppm. For the same molecule, the “Peracetic acid (ppm) In Solution” value in assay [2] amounted to 1703 ppm.

B4: EZ-26: C277S-EPEPEPEPEPE-Link1-CXHG102-H6, SEQ ID NO: 450 (protein)
chain: MAFFDLPLEELKKYRPERYEEKDFDEFWEETLAESEKFPLDPVFERMESHLKTVEAYDVTFSGYRGQRIKGWLLVPKLEEEKLPCVVQYIGYNGGRGFPHDWLFWPSMGYICFVMDTRGQGSGWLKGDTPDYPEGPVDPQYPGFMTRGILDPRTYYYRRVFTDAVRAVEAAASFPQVDQERIVIAGGSQGGGIALAVSALSKKAKALLCDVPFLCHFRRAVQLVDTHPYAEITNFLKTHRDKEEIVFRTLSYFDGVNFAARAKIPALFSVGLMDNISPPSTVFAAYNYYAGPKEIRIYPYNNHEGGGSFQAVEQVKFLKKLFEKGEPEPEPEPEPEPEPEGPGSGGAGSPGSAGGPGSLRFLARRFLKLRRARKWWNAWKVWVTRHHHHHH
With B4, in assay [1], the “Peracetic acid (ppm) Exposed … Disc” value came to 1849 ppm and the “Peracetic acid … Supernatant” value is recorded as 1636 ppm. The “Peracetic acid (ppm) In Solution” value in assay [2] was 2273 ppm.

B5: EZ-22: C277S-EPEPEPEPEPE-Link1-CXHG2-H6, SEQ ID NO: 446 (protein)
chain: MAFFDLPLEELKKYRPERYEEKDFDEFWEETLAESEKFPLDPVFERMESHLKTVEAYDVTFSGYRGQRIKGWLLVPKLEEEKLPCVVQYIGYNGGRGFPHDWLFWPSMGYICFVMDTRGQGSGWLKGDTPDYPEGPVDPQYPGFMTRGILDPRTYYYRRVFTDAVRAVEAAASFPQVDQERIVIAGGSQGGGIALAVSALSKKAKALLCDVPFLCHFRRAVQLVDTHPYAEITNFLKTHRDKEEIVFRTLSYFDGVNFAARAKIPALFSVGLMDNISPPSTVFAAYNYYAGPKEIRIYPYNNHEGGGSFQAVEQVKFLKKLFEKGEPEPEPEPEPEGPGSGGAGSPGSAGGPGSPLWRRITKRKLVRPVATLMWYWFTSKRHHHHHH
Turning to B5, in assay [1], the “Peracetic acid (ppm) Exposed … Disc” value is recorded as 2495 ppm and the “Peracetic acid … Supernatant” value was determined as 477 ppm. In assay [2], the “Peracetic acid (ppm) In Solution” value came out at 2305 ppm.
